This note sets out measurements from IntAct's records for PubMed 18007657.

The target in the assay is T1, anm10_arath PRMT10 (UniProt Q9MAT5).
T1 sequence: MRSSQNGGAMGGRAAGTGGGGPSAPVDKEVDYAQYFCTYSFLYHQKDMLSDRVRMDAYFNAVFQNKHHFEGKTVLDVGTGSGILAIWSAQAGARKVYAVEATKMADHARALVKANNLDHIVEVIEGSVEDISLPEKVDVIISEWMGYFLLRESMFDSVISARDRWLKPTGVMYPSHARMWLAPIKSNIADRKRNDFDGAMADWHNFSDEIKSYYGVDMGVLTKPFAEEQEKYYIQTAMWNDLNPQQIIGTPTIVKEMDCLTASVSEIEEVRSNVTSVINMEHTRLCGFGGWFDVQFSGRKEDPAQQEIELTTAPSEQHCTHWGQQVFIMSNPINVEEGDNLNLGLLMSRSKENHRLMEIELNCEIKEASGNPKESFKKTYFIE

“Histone H4 (Bos taurus (Bovine)) (from UniProt P62803) R4L”: the “effect of a mutation on the interaction” value is reported as “decreasing interaction”.
